Experiment [1] deals with human uPAR displayed on the surface of MDA-MB-231 cells (human) (UniProt Q03405). In words: cell-based or functional assay.
Experiment [2] shares this target. In words: flow cytometry (FACS) on MDA-MB-231 cells; isotype control. In general terms: In flow cytometry, cells or beads pass a laser one at a time.

Chain of human uPAR displayed on the surface of MDA-MB-231 cells (human) (Q03405 23-305): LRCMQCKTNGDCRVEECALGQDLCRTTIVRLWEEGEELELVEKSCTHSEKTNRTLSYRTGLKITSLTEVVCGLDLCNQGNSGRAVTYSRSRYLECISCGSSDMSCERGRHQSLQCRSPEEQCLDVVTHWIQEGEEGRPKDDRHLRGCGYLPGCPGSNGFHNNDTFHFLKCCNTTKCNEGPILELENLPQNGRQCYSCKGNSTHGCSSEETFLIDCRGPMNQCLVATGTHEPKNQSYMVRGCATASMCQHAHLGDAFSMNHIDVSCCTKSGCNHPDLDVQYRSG

In experiment [1], human IgG1 control (antibody) registered an ADCC NK-92 Max % of 0.468% and an ADCC PBMCs Max % of 4.8%. Moreover, the Cellular recognition Max % in experiment [2] was found to be 155%.

(Values after patent US20260116983A1.)
